Results from PMC2553845 (2008).
Where no end group is shown, it is not given here.

T1: SCRIB PDZ domain 2 (human, UniProt Q14160 862-950)
T1 chain: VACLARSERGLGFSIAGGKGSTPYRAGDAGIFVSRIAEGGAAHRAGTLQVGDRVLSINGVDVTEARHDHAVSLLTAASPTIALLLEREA

T2: SCRIB PDZ domain 3 (human, UniProt Q14160 1004-1093)
T2 chain: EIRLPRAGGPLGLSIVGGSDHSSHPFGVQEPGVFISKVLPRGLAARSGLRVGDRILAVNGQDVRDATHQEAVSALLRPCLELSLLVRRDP


Columns and labels:
Assay in all cases: ELISA
[1] = biological target: T1, SCRIB PDZ domain 2
[2] = biological target: SCRIB PDZ domain 1 (human, UniProt Q14160 728-815)
[3] = biological target: T2, SCRIB PDZ domain 3

Chain of SCRIB PDZ domain 1 (Q14160 728-815): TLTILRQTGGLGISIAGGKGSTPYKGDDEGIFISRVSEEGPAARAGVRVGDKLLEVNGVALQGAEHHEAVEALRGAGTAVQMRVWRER

Binder	IC50 [1] [µM]	IC50 [2] [µM]	IC50 [3] [µM]
RQIKIWFQNRRMKWKKRSWFETWV (not fully specified) [designed SCRIB PDZ-binding peptide Π-RSWFETWV (peptide 14)]	4.7	2.2	3.9
KHFRETEV (not fully specified) [peptide 2, C terminus of the HTLV-1 Tax protein]	5.2	3.4	58
